The source of these data is the RNAGym collection of RNA variant scans (doi:10.1073/pnas.2313332121).

The labels stand for the following.
B1: TPR t1 (parent)
chain: GACCAAUCUGCCCUCAGAGCUCGAGAACAUCUUCGGAUGCAGAGGAGGCAGGCUUCGGUGGCGCGAUAGCGCCAACGUCCUCAACCUCCAAUGCAUCCCACCACAUGAUGAUGCCUGAAGAGCCUUGGUUUUUUG

In the series the parent is B1. Briefly: polymerase ribozyme fitness, log enrichment relative to wild type (log ratio); higher = more active; in vitro selection for triplet polymerase activity. The gist of the method:
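Both subunits of a heterodimeric triplet polymerase ribozyme were given their own mutant library, built by PCR and transcribed. Each library was annealed with a biotinylated primer, the partner subunit and triplets, incubated frozen at −7 °C, and its extended constructs gel-excised, captured on streptavidin beads and amplified by RT-PCR, all in one round done in triplicate. Fitness is the logarithm of genotype enrichment relative to wild-type enrichment, with replicates averaged by inverse-variance weighting. That logarithm is base 2, and Illumina-sequenced genotypes needed ≥10 input reads and ≥1 read per output.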
Take GACCAAUCUUCCCUCAGAGCUCGAGAACAUCUUCGGAUGCAGAGGAGGCAGGCUUCGGUGGCGCGAUAGCGACAACGUCCUCAACCUCCAAUGCAUCCCACCACAUGAUGAUGCCUGAAGAGCGUUGGUUUUUUG: the “polymerase ribozyme fitness (log ratio)” value stood at 1.
Take GACCAAUCUGCCCUCAGAGCUCGAGAACAUCUUCGGAUGCAGAGGAGGCAGGCUUCGGUGGUGCGGUAGCGCCAACGUCCUCAACCUCCAAUGCAUCCCACCACAUGAUGAUGCCUGAAGAGCCUUGGUUUUUUG: the “polymerase ribozyme fitness (log ratio)” value is -1.54.
As to GACCAAUCUGCCCUCAGAGCUCGAGAACAUCUUCGGAUGCAGAGGAGGCAGGCUUCGGUGGCGCGAUAGCGCCAACGUCCUCAACCUCCAAUGCAUCCCACCACAUGAUGAUGCCGAAAGAGCCUUGGUUUUUUG, the “polymerase ribozyme fitness (log ratio)” value was -1.82.
Regarding GACCAAUCUGCCCUGAGAGCUCGAGAACAUCUUCGGAUGCAGAGGAGGCAGGCUUCGGUGGCGCGAUAGCGCCUACGUCCUCAACCUACAAUGCAUCCCAUCACAUGAUGAUGCCUGAAGAGCCUUGGUUUUUUG, the “polymerase ribozyme fitness (log ratio)” value was -4.74.
To GACCAAUCUGACCUCAGAGCUCGAGAACAUCUUCGGAUGCAGAGGAGGCAGGCUUCGGUGGCGCGAUAGCGCCAACGUCCUCAACCUCCAAUGCAUCCCACCACAUGAUGAUUCCUGAAGAGCCUUGGUUUUUUG belongs -3.17; to GACCAAUCUGCCCUCAGAGCUCGAGAACAUCUUCGGAUGCAGCGGAGGCAGGCUUCGGUGGCGCGAUAGCUCCAACGUCCUCAACCUCCAAUGCAUCCCACCACAUGAUGACGCCUGAAGAGCCUUGGUUUUUUA, -1.05.
The same measure for GACCAAUCUGCCCUCAGAGCUCGAGAACUUCUUCGGAUGCAGAGGGGGCAGGCUUCGGUUGCGCGAUAGCGCCAACGUCCUCAACCUCCACUGCAUCCCACCACAUGAUGAUGCCUGAAGAGCCUUGGUUUUUUG: -2.59; for GACCAAUCUGCCCUCAGAGCUCGAGAACAUCUUCGGAUGCAGAGGAGGCAGGCUUCGGUGUCGCGAUAGCGCCAACGUACUCAACCUCCAAUGCAUCCCACUACAUGAUGAUGCCUGAAGAGCCUUGGUUUUUUG: -3.26.
For the variant GACCAAUCUGCCCUCAGAGCUCGAGAACAUUUUCGGAUGCAGAGGAGGCAGGCUUCGGUGGCGCGAUAGCGCCAACGUCCUCAACCUCCAAUGCAUCCCACCACAUGAUGAUGCCUGAAGAGGCUUGGUUUUUUG, the “polymerase ribozyme fitness (log ratio)” value is -2.99.
The same measure for GACCAAUCUGCCCUCAGAGCUCGAGAACAUCUUCGGAUGCAGAGGAGGCAGGCUUCGGUGGCCCGAUAGCGCCAACGUCCUCAACCUCCAAUGCAUUCCACCACAUGAUGAUGCCUGAAGAGCCUUGGUUUUUUG: -0.711; for GACCAAUCUGCCCUCAGAGCUCGAGAACAUCUUCGGAUGCAGAGGAGGCAGGCUUCGGUGGCGCGAUAGCGCCAACGCCCUCCACCUCCAAUGCAUCCCACCACAUGAUGAUUCCUGAAGAGCCUUGGUUUUUUG: -3.26.
To GACCAAUCUGCCCUUAGAGCUCGAGAACAUCUUCGGAUGCAGAGGAGGCAGGCUUCGGUGGCGCGAUAGCGCAAACGACCUCAACGUCCAAUGCAUCCCACCACAUGAUGAUGCCUGAAGAGCCUUGGUUUUUUG belongs -2.43.
For GACCAAUCUGCCCUCAGAGCUCGAGAACAUCUUCGGCUGCAGAGGAGGCAGGCUUCGGUGGCGCGAUAGCGCCAACGUCCUCAACCUCUAAUGCAUCCCACCACAUGAUGAUGCGUGAAGAGCCUUGGUUUUUUG, the “polymerase ribozyme fitness (log ratio)” value was -3.26.
To GACCCAUCUGCCCUCCGAGCUCGAGAACAUCUUCGGAUGCAGACGAGGCAGGCUUCGGUGGCGCGAUAGCGCCAACGUCCUCAACCUCCAAUGCAUCCCACCACAUGAUGAUGCCUGAAGAGCCUUGGUUUUUUG belongs -4.17; to GACCAAUCUUCCCUCAGAGCUCGAGAACAUCUUCGGAUGCAGAGGAGGCAGUCUUCGGUGUCGCGAUAGCGCCAACGUCCUCAACCUCCAAUGCAUCCCACCACAUGAUGAUGCCUGAAGAGCCUUAGUUUUUUG, -2.92; to GACCAAUCUGCCCUCAGAGCUCGAGAACAUCUUCGGAUGCAGAGGAGCCAGGCUUCGGUGACGCGAUAGCGCCAACGUCCUCUACCACCAAUGCAUCCCACCACAUGAUGAUGCCUGAAGAGCCUUGUUUUUUUG, -3.32.
For GACCAAUCUGCCCUCAGAGCUCGAGAACAUCUUCGGAUGCAGAGGAAGCAGGCUUCGGUGGAGCGAUAGCGCCAACGUCCUCAACCUCCAAUGCAUCCCACCACAUGAUGAUGCCUGAAAAGCCUAGGUUUUUUG, the “polymerase ribozyme fitness (log ratio)” value is -3.07.
Take GACCAAUCUCCCCUCAGAGCUCGAGAACAUCUUCGGAUCCAGAGGAGGGAGGCUUCGGUGGCGCGAUAGCGCCAACGUCCUCAACCUCCAAUGCAUCCCACCACAUGAUGUUGCCUGAAGAGCCUUGGUUUUUUG: the “polymerase ribozyme fitness (log ratio)” value was -4.94.
The same measure for GACCAAUCUGCCCUCAUAGCUCGAGAACAUCUUCGGAUGCAGAGGAGGCAGGCUUCGGUGGAGCGAUAGCGCCAACGUCCUCAACCUCCAAUGCAUCCCACCACAUGAUGAUGCCUGAAGAGCCUUGGUUUUUUG: -2.83.
For GACCUAUCUGCCCUCAGAGCUCGAGAACAUCUUCGGAUGCCGAGGAGGCAGGCUUCGGUGGCGCGAUAGCGCCAACAUCCUCAACCUCCAAUGCAUCCCACCACAUGAUAAUGCCUGAAGCGCCUUGGUAUUUUG, the “polymerase ribozyme fitness (log ratio)” value is -5.22.
Take GACCAAUCUGCCCUCAGAGCUCGAGAACAUCUUCGGAUGCAGAGGAGGCAGGCGUCGGUGGCGCGAUAGCGUCAACGUCCUCAACCUCCAAUGCAUUCCACCACAUGAUGAUGCCUGAAGAGCCUUGGUUUUUUG: the “polymerase ribozyme fitness (log ratio)” value is -0.381.
